Test results reported in the nanobody polyreactivity screen of Harvey et al. (2022).

Experiment: yeast display, Sf9 membrane polyspecificity reagent, FACS + sequencing; frameworks hold sequencing errors
Procedure, shortened: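 After 36–48 hours of galactose induction, yeast (Saccharomyces cerevisiae BJ5465) displaying a synthetic nanobody library were stained at 4 °C for 1 hour with 10% biotinylated, detergent-solubilized Sf9 membrane reagent. Streptavidin microbeads enriched the stained cells before FACS sorting into low and high (top ~1%) gates on anti-HA and streptavidin fluorescence. Each clone's polyreactivity label reflects its gate of origin.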

Sequence	polyreactivity (PSR sort gate)
QVQLVESGGGLVQAGGSLRLSCAASGSTFGGNDMGWYRQAPGKERELVAAISSGTSTNYADSVKGRFTISRDNAKNTVYLQMNSLKPEDTAVYYCAAVYWVLWQGSTYGYWGQGTQVTVSS	low polyreactivity
QVQLVESGGGVVQAGGSLRLSCAASGSTFLVNAMGWYRQAPGKERELVAAISRSTGSTYYADSVKGRFTISRDNAKNSVYLQMNSLKPEDTAVYYCAVYRHGYGYNYWGQGTQVTVSS	high polyreactivity
QVQLVESGGGLVQAGGSLRLSCAASGSIFSAYAMGWYRQAPGKERELVAAISSRGGSTYYADSVKGRFTISRDNAKNTVYLQMNSLKPEDTAVDYCAARVRHSAYDYWGQGTQVTVSS	high polyreactivity
QVQLVESGGGLVQAGGSLRLSCSASGRIFWDYAMGRYRQAPGKERELVASSSTDGSTYYADSVKGRFTISRDNANNTFYLQMNSLKPEDTAVYYCAARGYRGRMGYWGQGTQVTVSS	low polyreactivity
QVQLVESGGGLVQAGGSLRLSCAASGITFQRYVLGWYRQAPGKERELVAAISFTASSTYYADSVKGRFTISRDYAKKTVYLQMNSLKPEDTAVYYCAADGSVPKYVPYPRYYGYGYWGQGTQVTVSS	high polyreactivity
QVQLEESGGCLVQEGGSLRLSCAASGIIFTSNTLGWYRQAPGKEREFVASINWNGSSTYADSVKGRFTISRDNAKNTVYLQMNSLKPEDTAVYYCNADYNRNSVQFSLYDYWGQGTQVTVSS	low polyreactivity
QVQLVESGGGLVQAGGSLRLSCAASGSTFYVYAMGWYRQAPGKERELVAAIDSGDSTNYADSVKGRFTISRDNAKNTVYLQMNSLNPEDTAVYYCAVGYWDSRYRYDWPNSDYWGQGTQVTVSS	low polyreactivity
QVQLVESGGGLVQAGGSLRLSCAASGSIFPGYAMGWYRPAPGKDRELVATIPWSGGSTYYADSVKGRFTISRDNENNTVYLQMNSLKPEDTAVYYCYADSYWYYQWYYYGLYDYWGAGTQVTVSS	low polyreactivity
QVQLQESGGGLVQPGGSLRLSCAASGYISSWYPMGWYPQAPGKEREFVATIAPGATTYYADSVKGRFTISRDYANNTVYLQMNSLKPEDTAVYYLAAGPENKDFYSYWCQGTQVTVSS	low polyreactivity
QVQLVESGGGLVQAGGSLRLSCASSGRIFYTYAMGWYRQAPGKERELVAAIRYSGGSTYYADSVKGRFTISRDNAMNTVYLQINSLKPEDTAVYYCAATVYTKQFDYWGQGTQVTVSS	high polyreactivity
QVQLVESGGGLVQAGGSLRLSCAASGFIFRSYAMGWYRQAPGKERELVAVISRRGVNTHYADSVKGRFTISRDNAKNTVNLQMNSLKPEDTAVYYCAKGLTALGDYWGQGTQVTVSS	high polyreactivity
QVQLVESGGGLVQAGGSLRLSCAASGSIFWRNAMGWYRQAPGKERELVAVISSGGRTYYADSVKGRFTISRDNAKNTVYLQMNSLKPEDTAVYYCAAQYHGGISQRLYYWGQGTQVTVSS	high polyreactivity
QVQLVESGGGLVQAGGSLRLSCAASGIIFRLYAMGWYRQAPGTERELVAAISRRGDSTYYADSVKGRFTISRDNAKNTGYVQMNSLKPEDTAVYYCAAVYVPYYWLGRSRGLDYWGQGTQVSVSS	high polyreactivity
QVQLVESGGGLDQAGGSLRLSCAASGSISAIYTMGWYRQAPGKERELVAAISSGDSTNYADSVKGRFTISRDNAKNTVYLQMNSLKPEDTAVYYCATERSHLATGQGYYYVQTFYYWGQGTEVTVSS	low polyreactivity
QVQLVESGVGLVQAGGSLRLSCAASGFIFPTYAMGWYRQAPGKEREFVASITRRGGSTYYADSVKGRFTISRDNAKNSVYLQMNSLKPEDTAVYYCAAGYYGFRGGGSDYWGQGTQVTVSS	high polyreactivity
QVQLVESGGGLVQAGGSLRLSCAASGSISSGYFMGWYRQAPGKERELVAAISFSGGSTYYADSVKGRFTISRDNAKNTVYLQMNSLKPEDTAVYYCNALFWYRYFSGVSQDYDYWGQGTQVTVSS	high polyreactivity
QVQLVESGGGLVQAGGSLRLSCAASGFIFQTNVMGWYRQAPGKERELVAAISSGDSTYYADSVKGRFTISRDNAKNTVYLQMNSLKPEDTAVYYCAARRGTGSYSYRYPYGYDYWGQGTQVTVSS	low polyreactivity
QVQLVESGGGLVQAGGSLRLSFAASGYTFWYYAMGWYRQAPGKERELVARISKRGGSTYYADSVKGRFTISRDNAKNTVYLQMNSLKPEDTEVYYCAADTRQQSHSMDYWGQGTQVTVSS	low polyreactivity
QFQLVESGGGLVQAGGSLRLSCAASGSTLAPYVMGWYRQAPGKDRELVAVISTRTGRPYYADSVKGRFTISRDNAKNTVYLQMNSLKPEDTGVYYCAARKKTTYRDWGRHDYWGQGTQVTVSS	high polyreactivity
QVQLVESGGGLVQAGGSLRLSCAASGSTFYPYGMGWYRHAPGKERDLVAAISKRGGSTYYADSVKGRFTISRDNAKNTVYLQMNSLKPEDTAVYYCAAYGAGKFWAEHNYWGQGTQVTVSS	high polyreactivity
QVQLVESGGGLVPAGGSLRLSCAASGSNFYWYVMGWYRQAPGKERELVADIRYSPGRTYYADSVKGRFTISRDNAKNTVYLQMNSLIPEDTAVYYCKARRRLFTVDFDYWGQGTQVTVSS	high polyreactivity
QVQLVESGGGLVQAGGSLRLSCAASGSTFSDYAMGWYRQAPGKERELVAAISRRGGSTYYADSVKGRFTISRDNAKNTVYLQMNSLKPEDTAVYYCAKAAYPWTRMEYWGQGTQVTVSS	high polyreactivity

Sequence	polyreactivity (PSR sort gate)
QVQLVESGGGLVQARGSLLLSSAASGLIFQTYTMGWYRQAPGKERELVAAITSSGGRTYYADSVKGRFTISRDNAKNSVFLQKNSLKPEDTAVYYCAARRPPSAGMGYWGQGTQVTVSS	high polyreactivity
QVHLVESGGGLVQAGGSLRLSCAASGGTFDKNAMGWYSQAPGKESEFVAAITYGGGSTYYADSVKGRFTISRDNAKNTVYLQMTSLKPEDSAVYYCAVAIITYPYATGSSYDYWGQGTQVTVSS	low polyreactivity
QVQLVESGGGLVQAGGSLRLSCAASGYIWYYAMGWSRQAPGKERELVAAISWGGGSTYYADSVKGRFTISRDNAKNTVYLQMNSLKPEDTAVYYCATRCIPDDNARDYWGQGTQVTVSS	low polyreactivity
QVQHVESGGGLVQAGGSLRLSCAASGITFYVNDMGWSRQAPGKEREFVAAISYRGGSPYYADSVKGRFTFSRDNAKNTVYLKMNSLKPEDTAVYYCAADYNYWSPHRYDYWGQGTQVTVSS	low polyreactivity
QVQLVESGGGLVQAGCSLRLSCAASGFTFQHNAMGWYRQAPGKERELVAAISRGGSTNYADSVKGRFTISRDNAKNTVYLQMNSLKPEDTAVYYCAAYDWRVLWGYDYWGQGTQVTVSS	low polyreactivity
HVQLVESGGGLVQAGGSLRLSCAASGSIFVPYTMGWSRQAPGKERELVAAINSSDDSKFYADSVKGRFTISRDNAKNPVYLQMNSLKPEDTAVYYCAASYYYTIGPYFRKFDWGQGTQVTVSS	low polyreactivity
QVQLVESGGGLVQAGGSLRLSCAASGFTFARNAMGWNRQAPGKERELVASITQRGGSTNYADSVKGRFTISRDNAKNTVYFQLNSLKPEDTAVYYCNKASQLYYIQGTYSYGYWGQGSQVTVSS	low polyreactivity
QVQLVESGGGLVQAGGSLRLSWAASGSTFVVYAMGWYRQAPGKERELVAAIDLSVGDTYYADSVKGRFTISRDNAKNTVFVQMNILKPEDTAVYYCAAEFYSYKYPDYDYWGQGTQVTVSS	low polyreactivity
QVQLVESGGGLVQAGGSLRLSCAASGSTILTYVMGWYRQAPGKERELVAAISYSGGRSYYADSVKGRFTISRDTAKNTVYLQMNSLKPEDTAVYYCAAYRVNKSSRTMDYWGQGTQVTVSS	high polyreactivity
QVQLVESGGGLVQAGGSLRLSCAASGFIFRRYAMGSYRQAPGKERELVAAISGSGGRTYYADSVKGRFTISRDNAKNTVYLQMNSLKPEDTAVYYCAADHGSLLYDYWGQGTQVTVSS	high polyreactivity
QVQLVESGGGLVQAGGSLPLSCAASGSIFSKYTMGWYRQAPGKERELDAAISRAGSTYYADSVKGRFTISRDNAKNSVYLQMNSLKPEDTAVYYCNARYRGVYPLIGIRRDYYYWGQGTQVTVSS	high polyreactivity
QVQLVESGGGLVQAGGSLRLSCAASGRIFGEYAMGWYSQAPGKERELVASISSGGNTNYADSVKGRFTISRDNAKNTFYLQMNSLKPEDTAVYYCAADDYATPQKMDYWGQGTQVTVSS	high polyreactivity
QVQLVESGGGLVQAGGSLRLSCAASGRIFLWYAMGWYRQAPGKERELVAANSSNGGSTRYADSVKGRFTISRDNAKNTVYLQMNSLKPEDTAVYYCNADVHWNRYPYGGNGYGYWGQGTQVTVSS	low polyreactivity
QVQLVESAVGLVQAGGSLRLSCDASGRSYYTYAMGWYRQAPGKERELVATITDGGSTYYAESVKGRFTISRDNAKNTVYLQMNSLKPEDTAVYYCAADAYQWYDWGQGTQVTVSS	low polyreactivity
QVQLVESGGGLVQAGGSLRLSCAASGYIFGHYAMGWSRQAPGKERELVAGITWRGGSTYYADSVKGRFTISRDNAKNTVYLQLNSLKPEDTAVYYCNAQYTQRWPYGLYYEMDYWGQGTQVSVSS	low polyreactivity
QVQLVESGGGLVQAGGSLRLSCAASGRTFKYYAMGWYRQAPGKERELVAAISHSGGSTYYADSVKGRFTISRDNAKNTVYLQMNSLKPEDTAVYYCAADHGDGNYPYYYWGQGTQVTVSS	high polyreactivity
QVQLVESGGGLVQAGGSIRLSCAASGSLFEPYFMGWYRQAPGKERELVAAIRQTGGSTYYADSVKGRFTISRDTAKNTVYLQMNSLKPEDTAVYYCAKDSQTARDFDYWGQGTQGTVSS	low polyreactivity
QVQLVESGGGLVQAGGSLRLSCAASGSTFLLYDMGWYRQAPGKERELVAAITWSGGSTYYADSVKGRFTISRDNAKNTVYLQMNSLKPEDTAVYYCAADSLGDRYYYWGQGTQVTVSS	low polyreactivity
QVQLVESGGGLVQAGGRLRLSCAASGTTFWNNAMGWYRQAPGKERELVPGISRSGGSTYYADSVKGRFTISRDNAKNTVYLQMNSLKPEDTAVYYCNKVNYAKRNYWGQGTQVTVSS	low polyreactivity
QVQLVESGGGLVQAGGSLRLSCAASGSIFRWYAMGWYRQAPGKERELVAAISKSGGTTYYADSVKGRFTISRDNAKNTVYLQMNSLKPEDTAVYYCAARRYPYGGYGYRYDYWGQGTQVTVSS	high polyreactivity
QVQLVESGGGLVQAGGSLRLSCAASGFTFRLYDMGCYIQAPGKERELVAAISIRGGRTYYADSVKGRFTISRDNAKNTVYLQMNSLKPEDTAVYYCAAYSQYLKRDYWGQGTQVTVSS	high polyreactivity
